From CN107042090A

Legend:
[1] = target: Myc-GST融合蛋白 (Myc标签与谷胱甘肽融合的蛋白); assay: ELISA, Myc-GST coated at 5 μg/mL, HRP anti-His secondary antibody; heat test at 70℃
[2] = target: Myc-GST融合蛋白 (Myc标签与谷胱甘肽融合的蛋白); assay: ELISA, Myc-GST coated at 5 μg/mL, HRP anti-His secondary antibody; heat test at 80℃
[3] = target: Myc-GST融合蛋白 (Myc标签与谷胱甘肽融合的蛋白); assay: ELISA, Myc-GST coated at 5 μg/mL, HRP anti-His secondary antibody; heat test at 90℃

- OD450 [1]: 1.5 OD450
- OD450 [2]: 1.2 OD450
- OD450 [3]: 1.1 OD450
B1: 抗c-Myc标签单域重链抗体 (anti-c-Myc tag single-domain heavy-chain antibody) (VHH, not shown: small tags and cut ends)
VHH: QLQLVESGGGEVQAGGSLKLSCAASGSNVQISAMGWYRQVPGKQREFVASETNGGRIDYADFVEGRFTISRDRAKNTVYLQMTSLRPEDTAVYYCNAAPGGWYADLREEYWGKGTLVTVSS
